Source: patent US20060024786A1, “WASP and N-WASP constructs and methods of expressing such constructs” (Cytokinetics, Inc., priority 2004, published 2006)

Legend:
Arp2/3 complex = biological target: T1, Arp2/3 complex; test: Arp2/3-mediated actin polymerization stimulated by WASP/N-WASP proteins; type: biochemical, human; details: for Activate Arp2/3?: Table 2
T1 construct: prepared from an Arp2/3 source such as human platelets; from tissue; host or cells: cell extract, e.g. human platelets
Experimental: Samples containing candidate agents (individually or as mixtures) are placed into wells on a multi-well plate. Mix 1 is added to each of the wells and mixed with the candidate agent. A sample of Mix 2 is then introduced into each well and the resulting mixture thoroughly mixed. Typically, Mix 1 and Mix 2 are mixed in 1:1 ratio (e.g., 50 μl each of Mix 1 and Mix 2).
Actin polymerization is measured as a function of time by exciting pyrene at 365 nm and by detecting an increase in fluorescence emission at 407 nm. The change in fluorescence over time is utilized to determine a fluorescence parameter (e.g., maximal velocity, time to half maximal fluorescence intensity or area under the curve of a plot of fluorescence versus time).
In a second set of experiments, the ability of various truncated forms of WASP were compared to the activity of the full-length protein. The polymerization assays were conducted in the presence of 500 nM Cdc42, 2.5 nm purified Arp2/3 complex and 3.5 μM actin. FL-WASP, 105 WASP and the VCA (see Example 7) domain were tested. The results of these trials were plotted to obtain EC50 values. The results are provided in FIG. 6 and in the chart below.

[1] = system: Cdc42, PIP2, Nck and Rac1; test: Regulation of WASP/N-WASP proteins by upstream regulators; type: biochemical; details: Table 2
Excerpt: (§1) A second class of WASP and N-WASP proteins are those in which the WH-1 and PolyPro region have been at least partially removed. Specific examples of WASP and N-WASP proteins lacking at least a part or all of the WH1 and PolyPro regions include, but are not limited to, 213 miniWASP, 199 miniWASP and 105 miniWASP (see, FIGS. 3A and 3B). These three proteins each lack some or all of the WH-1 region, and the entire PolyPro region (approximately residues 309-414 of SEQ ID NO:2). The 213 miniWASP protein thus includes, for example, amino acid residues 213-308 and 415-501 from the full length WASP sequence (SEQ ID NO:2). 199 miniWASP includes residues 199-308 and 415-501 of SEQ ID NO:2). 105 miniWASP includes residues 105-308 and 415-501 of SEQ ID NO:2).
(§2) A fourth class of WASP and N-WASP proteins that are provided are deletion mutants in which the PolyPro region is maintained but an N-terminal region (e.g., WH1 domain) is at least partially removed. Some proteins in this class are ones that include the B, CRIB/GBD, PolyPro and VCA domains but in which some or all of the WH1 has been removed. One specific example is 98N-WASP, which includes amino acids 98-501 of SEQ ID NO:4 (also assigned SEQ ID NO:12). Another specific example is the 105 WASP protein, which includes amino acids 105-501 of SEQ ID NO:10 (see FIG. 3A and 3B). […] They can also activate actin nucleation by Arp2/3.

[2] = biological target: T2, Cdc42, PIP2, Nck and Rac1 (Homo sapiens, UniProt P60953, G12V); test: as above; type: biochemical; details: Cdc42 binds and activates the construct, which then activates Arp2/3 nucleation
T2 construct: made in house; host or cells: E. coli BL21(DE3) or BL21 STAR
Excerpt: as §1, §2

[3] = Solubility of purified full-length protein; type: physicochemical; details: expressed in 293 cells, TAP-tag purification

T2 sequence (P60953 2-191 isoform P60953-1 G12V): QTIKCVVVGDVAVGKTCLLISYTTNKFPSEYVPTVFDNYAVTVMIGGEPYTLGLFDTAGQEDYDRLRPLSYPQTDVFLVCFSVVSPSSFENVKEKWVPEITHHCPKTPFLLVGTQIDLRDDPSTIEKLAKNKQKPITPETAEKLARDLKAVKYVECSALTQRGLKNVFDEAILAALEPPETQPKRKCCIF

B1: 105WASP: WASP deletion mutant lacking the WH1 domain, amino acids 105-501; SEQ ID NO:10 (protein, listed as Homo sapiens)
chain: LVYSTPTPFFHTFAGDDCQAGLNFADEDEAQAFRALVQEKIQKRNQRQSGDRRQLPPPPTPANEERRGGLPPLPLHPGGDQGGPPVGPLSLGLATVDIQNPDITSSRYRGLPAPGPSPADKKRSGKKKISKADIGAPSGFKHVSHVGWDPQNGFDVNNLDPDLRSLFSRAGISEAQLTDAETSKLIYDFIEDQGGLEAVRQEMRRQEPLPPPPPPSRGGNQLPRPPIVGGNKGRSGPLPPVPLGIAPPPPTPRGPPPPGRGGPPPPPPPATGRSGPLPPPPPGAGGPPMPPPPPPPPPPPSSGNGPAPPPLPPALVPAGGLAPGGGRGALLDQIRQGIQLNKTPGAPESSALQPPPQSSEGLVGALMHVMQKRSRAIHSSDEGEDQAGDEDEDDEWDD
modifications: (1)..(398) 105WASP
**Q.** Which “Activate Arp2/3?” value (Arp2/3 complex) does the source give for B1 here?
**A.** Yes

**Q.** What about the “Regulated By Which Upstream Regulators?” value [1] of the same molecule?
**A.** Cdc42, PIP2, Nck and Rac1

B2: 199 miniWASP: residues 199-308 and 415-501 of SEQ ID NO:2 (protein, listed as Homo sapiens)
chain: TVDIQNPDITSSRYRGLPAPGPSPADKKRSGKKKISKADIGAPSGFKHVSHVGWDPQNGFDVNNLDPDLRSLFSRAGISEAQLTDAETSKLIYDFIEDQGGLEAVRQEMRLPPALVPAGGLAPGGGRGALLDQIRQGIQLNKTPGAPESSALQPPPQSSEGLVGALMHVMQKRSRAIHSSDEGEDQAGDEDEDDEWD
modifications: (1)..(502) FL-WASP
**Q.** For B2, which “regulation by Cdc42” value [2] is on record?
**A.** regulated by Cdc42

B3: 98 N-WASP: N-WASP deletion mutant, amino acids 98-501 of SEQ ID NO:4; SEQ ID NO:12 (protein, listed as Homo sapiens)
chain: FVYNSPRGYFHTFAGDTCQVALNFANEEEAKKFRKAVTDLLGRRQRKSEKRRDPPNGPNLPMATVDIKNPEITTNRFYGPQVNNISHTKEKKKGKAKKKRLTKADIGTPSNFQHIGHVGWDPNTGFDLNNLDPELKNLFDMCGISEAQLKDRETSKVIYDFIEKTGGVEAVKNELRRQAPPPPPPSRGGPPPPPPPPHNSGPPPPPARGRGAPPPPPSRAPTAAPPPPPPSRPSVAVPPPPPNRMYPPPPPALPSSAPSGPPPPPPSVLGVGPVAPPPPPPPPPPPGPPPPPGLPSDGDHQVPTTAGNKAALLDQIREGAQLKKVEQNSRPVSCSGRDALLDQIRQGIQLKSVADGQESTPPTPAPTSGIVGALMEVMQKRSKAIHSSDEDEDEDDEEDFEDDDEWED
modifications: (1)..(408) 98N-WASP
**Q.** Which “Activate Arp2/3?” value (Arp2/3 complex) does the source give for B3 here?
**A.** Yes

**Q.** And the “Regulated By Which Upstream Regulators?” value [1]?
**A.** Cdc42, PIP2, Nck and Rac1

B4: 213 miniWASP: amino acid residues 213-308 and 415-501 of full length WASP (SEQ ID NO:2) (protein, listed as Homo sapiens)
chain: RGLPAPGPSPADKKRSGKKKISKADIGAPSGFKHVSHVGWDPQNGFDVNNLDPDLRSLFSRAGISEAQLTDAETSKLIYDFIEDQGGLEAVRQEMRLPPALVPAGGLAPGGGRGALLDQIRQGIQLNKTPGAPESSALQPPPQSSEGLVGALMHVMQKRSRAIHSSDEGEDQAGDEDEDDEWD
modifications: (1)..(502) FL-WASP
**Q.** Which “regulation by Cdc42” value [2] does the source give for B4 here?
**A.** regulated by Cdc42

B5: FL-N-WASP: full-length N-WASP, SEQ ID NO:4; expressed TAP-tagged in human 293 cells (protein, listed as Homo sapiens)
chain: MSSVQQQPPPPRRVTNVGSLLLTPQENESLFTFLGKKCVTMSSAVVQLYAADRNCMWSKKCSGVACLVKDNPQRSYFLRIFDIKDGKLLWEQELYNNFVYNSPRGYFHTFAGDTCQVALNFANEEEAKKFRKAVTDLLGRRQRKSEKRRDPPNGPNLPMATVDIKNPEITTNRFYGPQVNNISHTKEKKKGKAKKKRLTKADIGTPSNFQHIGHVGWDPNTGFDLNNLDPELKNLFDMCGISEAQLKDRETSKVIYDFIEKTGGVEAVKNELRRQAPPPPPPSRGGPPPPPPPPHNSGPPPPPARGRGAPPPPPSRAPTAAPPPPPPSRPSVAVPPPPPNRMYPPPPPALPSSAPSGPPPPPPSVLGVGPVAPPPPPPPPPPPGPPPPPGLPSDGDHQVPTTAGNKAALLDQIREGAQLKKVEQNSRPVSCSGRDALLDQIRQGIQLKSVADGQESTPPTPAPTSGIVGALMEVMQKRSKAIHSSDEDEDEDDEEDFEDDDEWED
modifications: TAP tag; (1)..(505) FL-N-WASP
notes: expressed TAP-tagged in human 293 cells
**Q.** For B5, which “stimulation of actin polymerization by the protein by itself” value (Arp2/3 complex; without upstream regulators, FIG. 5) is on record?
**A.** only weakly stimulate actin polymerization

**Q.** What about the “solubility of purified protein” value [3] of the same molecule?
**A.** completely soluble
